# From US8679782B2, “Production of triacylglycerides, fatty acids, and their derivatives” (Massachusetts Institute of Technology, priority 2009, dated 2014)
# B1: TadA: R. opacus PD630 heparin-binding hemagglutinin homolog, SEQ ID NO:11 (protein, listed as Rhodoccus opacus)
# chain: MTDQKTIDSVKTSLYAAVGAGDVVVQAVADVVAQVRSRAESTQGDVEERVGGAKERIAGLQEEVTEGVENLRDRLAGLPSELPEELAELREKFTADELRKVAEAYLKVASDLYTSLAERGEDTVERIRKQPVVEEGIGRAETAFGDAVELTEEALGTVARQTRAVGEQAAKLAGRASGRISDTAEGLGEAIADAGDEAALKVLDLGDQAEEASKDAADRVAATAADVQAQADKAAQAKHAAPAKKAAPAKAAATPAPAPAKKVAAPAKKAAPAKKA
# B2: TadD: R. opacus PD630 non-phosphorylating NAD(P)+-dependent glyceraldehyde 3-phosphate dehydrogenase homolog, SEQ ID NO:4 (protein, listed as Rhodoccus opacus)
# chain: MSIAADSLSNITPPGLTIDGEITTTAAVIPVINPATESAFIEVPDAGVEQLDAAVSAARRAAKHWATHDLPFRQGIVLRLVDHVRANIDELARLVTLEQGKPLAKAAGEIESGLRGLERYASWDIPVEVIRDNDDELIEVHRAPVGVVGGITAWNYPLLLALWKIGPALITGNPIIVKPSPLTPVATLRLGELAQQILPPGVLQVLSGGDDLGRAMTAHTGIDKITFTGSERAGKSIMAGAGATLKRLTLELGGNDPGIVLDDVDVASIAADLYWGALSNCGQVCAGLKRLYVPQHLAPAIEEALAEVAKGVKVGNGLDDGVDMGPVQNAAQFTKVRGYVDDAANRGADVYFRGEVPEGPGYFHPVTLVRGVDDSVPLVREEQFGPVLPILTYTDIDDVIARANDSELALGASVWSSDEQRATEVAERVEAGTVWVNQHPMLSSDVPFGGVKQSGLGVEQSIHGVLEYTNYRVLRVKR
# Legend:
# [1] = system: purified lipid bodies; assay: Western blotting of lipid bodies from the aggregation assay; type: binding, R. opacus PD630; settings: supernatant and washed lipid body fractions
# [2] = Heparin-sepharose binding
# Description: Purified TadA was diluted to a final concentration of 500 μg/ml in dialysis buffer. 100 mg of Heparin-sepharose CL-6B (GE Healthcare, Piscataway, N.J.) was resuspended in 5 ml of Tris buffer (20 mM Tris (pH7.0), 100 mM NaCl) and allowed to rehydrate with gentle agitation for 1 h. Following rehydration, the resin was pelleted via centrifugation at 1000×g for 2 minutes and subsequently washed 3 times in the same buffer. The resin was resuspended in 1 ml of Tris buffer to which 500 μg of purified TadA was added. The Sepharose-TadA slurry was incubated at 4° C. for 1 h with gentle agitation. Following incubation, the resin was pelleted, an aliquot of the supernatant was removed (flow-through fraction), the Sepharose was washed 5 times with Tris buffer and an aliquot of the supernatant from the final wash was removed (wash fraction). The remaining heparin-sepharose was resuspended in 1 ml of Tris buffer from which an aliquot was removed (beads fraction). 5× SDS-PAGE loading buffer was added to each aliquot, which were then boiled for 5 min. Samples were resolved using 10% acrylamide Ready gel Tris-HCl SDS-PAGE gels (Bio-Rad, Hercules, Calif.) and stained using colloidal coomassie as previously described (18, 31).
# [3] = system: purified lipid bodies; assay: Lipid aggregation assay with purified lipid bodies; type: biochemical, R. opacus PD630
# Description: Lipid bodies were purified from R. opacus PD630 as previously described (27) with minor modifications. Briefly, R. opacus was grown for 96 h in minimal media supplemented with 4% glucose and 0.15% ammonium sulphate. Cultures were harvested via centrifugation at 6000×g for 20 minutes. Cell pellets were resuspended in 25 ml of PBS and lysed by passing through a French pressure cell set at 18,000 psi 5 times. An equal volume of 80% glycerol was added to lysates followed by centrifugation at 6000×g for 3 h at 4° C. Following centrifugation, the upper layer (lipid body fraction) was removed to 40 ml of 40% glycerol (tube #1) and the pellet (cell debris) was resuspended in 40 ml of 40% glycerol (tube #2) followed by a second centrifugation at 6000×g for 3 h. The lipid body layer (upper layer) from tube #1 was removed to 20 ml PBS and the cell debris (pellet) from tube #2 was resuspended in 20 ml of PBS followed by centrifugation at 7500×g for 30 min. All fractions were then resuspended in 5 ml of PBS and used immediately. […] Wells were imaged using a Canon Powershot SD1200 IS digital camera (Canon, Lake Success, N.Y.). To obtain a more quantitative measure of aggregation, 2 μl of the supernatant was removed from each well and the optical density at 600 nm was determined using a Nano-Drop spectrophotometer (Thermo Scientific, Wilmington, Del.).
# [4] = system: yeast; assay: Yeast agglutination assay; type: cell-based; settings: FIG. 85
# [5] = NAD(P)H-dependent glyceraldehyde 3-phosphate dehydrogenase (ND-G3PDH) activity assay; type: biochemical; settings: purified histidine-tagged protein vs empty vector fractions; G3P and NAD(P)+
# Description: NP-G3PDH activity was assayed as previously described with minor modifications (9). Briefly, reactions contained 1 mM NAD(P)+, 1 mM glyceraldehyde 3-phosphate and either […] of purified TadD or […] of crude bacterial lysate in a final volume of 1 ml. Reactions were incubated at 37° C. for one hour. Following incubation, the optical density of the reactions was measured at 340 nm. R. opacus cultures were grown in either lysogeny broth or MR medium supplemented with 4% glucose and 0.15% ammonium sulphate for 24 hours prior to mechanical disruption using a French pressure cell. Cellular debris was pelted by centrifugation at 20,000×g for 30 minutes.
# Additionally, we fractionated supernatant from E. coli containing the parental plasmid which was used as an empty vector control. Fractions containing the histidine tagged TadD protein (and the corresponding fractions from the empty vector fractionation) were then used in ND-G3PDH activity assays.
Molecule,association with lipid bodies (anti-penta-histidine Western blot) [1],binding to heparin-sepharose in the presence of pure heparin ([2]; control with pure heparin),"binding to heparin-sepharose (SDS-PAGE of flow through, wash, beads) ([2]; purified hexa-histidine protein)",optical density at 600 nm of the supernatants ([3]; 2 μl supernatant from each well),"lipid body aggregation and flocculation (96 well dish) ([3]; increasing protein concentrations, 12 h room temperature)",size of lipid body aggregates (Nile Red fluorescent microscopy) ([3]; samples from the aggregation assay),yeast agglutination [4],NAD(P)H formation (increase in optical density at 340 nm) [5]
B1,detected in both the supernatant as well as the lipid body fractions,completely abrogated any binding,the majority of the protein was found associated with the heparin-sepharose,decreases as protein concentration increases,capable of inducing lipid body aggregation and subsequent flocculation in a dose-dependent manner,aggregated into very large clumps,yeast agglutination mediated by TadA,
B2,,,,,,,,significantly more NAD(P)H
